According to patent publication US8067371:

Legend:
[1] = biological target: human RAGE 82G (common allele, full-length) (human) (UniProt Q15109); assay: radioligand binding of 125I-EN-RAGE on stably transfected CHO cells, equilibrium analysis by Klotz and Hunston
[2] = biological target: human RAGE 82S (variant allele, G82S) (human) (UniProt Q15109); assay: as above
[3] = biological target: RAGE 82G/82S on human mononuclear phagocytes of heterozygous subjects (human) (UniProt Q15109); assay: cell-based or functional assay
[4] = biological target: human RAGE 82G (common allele, full-length) (human) (UniProt Q15109); assay: cell-based or functional assay
[5] = biological target: human RAGE 82S (variant allele, G82S) (human) (UniProt Q15109); assay: cell-based or functional assay

Kd [1]: 122 nM | Kd [2]: 77 nM | EN-RAGE-mediated MMP-9 activity, MPs bearing RAGE 82G/82S against RAGE 82G [3]: 1.9 fold | IL-6 in EN-RAGE-stimulated MPs, RAGE 82G/82S compared with RAGE 82G [3]: 2.9 fold | IL-6 in culture supernatant (ELISA), human MPs bearing RAGE 82G/82S exposed to EN-RAGE [3]: 160 pg/mL | MMP-9 activity (zymography), human MPs bearing RAGE 82G/82S, EN-RAGE against baseline [3]: 4.3 fold | TNF-alpha in EN-RAGE-stimulated MPs, RAGE 82G/82S compared with RAGE 82G [3]: 1.8 fold | TNF-alpha in culture supernatant (ELISA), human MPs bearing RAGE 82G/82S exposed to EN-RAGE [3]: 850 pg/mL | phosphorylated MEK 1/2, human MPs, EN-RAGE against unstimulated cells [3]: 4.5 fold | phosphorylated p44 and p42 MAP kinases, human MPs, EN-RAGE against unstimulated cells [3]: 4.3 fold | IL-6 in culture supernatant (ELISA), human MPs bearing RAGE 82G exposed to EN-RAGE [4]: 55 pg/mL | MMP-9 activity (zymography), human MPs bearing RAGE 82G, EN-RAGE against basal [4]: 2.3 fold | NF-kB nuclear binding activity by EMSA, CHO transfectants, EN-RAGE against BSA [4]: 2.4 fold | TNF-alpha in culture supernatant (ELISA), human MPs bearing RAGE 82G exposed to EN-RAGE [4]: 470 pg/mL | activation of MEK 1/2, human MPs bearing RAGE 82G, EN-RAGE against unstimulated cells [4]: 2.6 fold | activation of p44/p42 MAP kinases, human MPs bearing RAGE 82G, EN-RAGE against unstimulated cells [4]: 2.3 fold | phosphorylated MEK 1/2 by immunoblotting, CHO transfectants, EN-RAGE 10 ug/ml against BSA [4]: 2.2 fold | phosphorylated p44/42 MAP kinases by immunoblotting, CHO transfectants, EN-RAGE 10 ug/ml against BSA [4]: 1.9 fold | NF-kB gel shift band intensity by EMSA, CHO transfectants, EN-RAGE against BSA [5]: 5.1 fold | RAGE-mediated NF-kB activation, RAGE 82S compared with 82G [5]: 2.1 fold | phosphorylated MEK 1/2 by immunoblotting, CHO transfectants, EN-RAGE 10 ug/ml against BSA [5]: 3.6 fold | phosphorylated p44/42 MAP kinases by immunoblotting, CHO transfectants, EN-RAGE 10 ug/ml against BSA [5]: 4.1 fold | phosphorylation of MEK 1/2, CHO cells with RAGE 82S compared with RAGE 82G [5]: 1.6 fold | phosphorylation of p44/p42 MAP kinases, CHO cells with RAGE 82S compared with RAGE 82G [5]: 2.2 fold
B1: EN-RAGE (Extracellular Newly-Identified RAGE binding protein) (ligand, from a related filing)
chain: TKLEDHLEGIINIFHQYSVRVGHFDTLNKRELKQLITKELPKTLQNTKDQPTIDKIFQDLDADKDGAVSFEEFVVLVSRVLKTAHIDIHK
